Key:
[1] = QELS particle size and zeta potential of peptide DNA condensates, Example 6; format: physicochemical; conditions: charge ratio 4:1, 50 μg/ml DNA in HBM; for Particle Size (nm): 90°, average and SD of three, No particles formed; for Zeta Potential (mV): average and SD of ten
Protocol: The particle size and zeta potential of peptide DNA condensates were determined by quasielastic light scattering (QELS) using a Brookhave ZetaPlus™. Particle size analysis was performed in triplicate at a DNA concentration of 50 μg/ml in HBM at a charge ratio of 4:1 and a scattering angle of 90°. Data analysis utilized a multimodal volume distribution option included with the instrument. Zeta potential was also determined using 50 μg/ml peptide DNA condensates prepared at a 4:1 charge ratio in HBM. The reported zeta potential was averaged from ten determinations.

plasmid DNA = test: Thiazole orange displacement titration of peptide binding to DNA, Example 6; conditions: titration across charge ratios 0.25-8
Protocol: Peptide DNA condensates were prepared by combining 50 μg of DNA in 500 μl of Hepes buffered mannitol (HBM) (5 w/v% mannitol, 5 mM Hepes, pH 7.5) with […] of peptide in 500 μl of HBM while vortexing to form peptide DNA condensates with a calculated primary amine to phosphate charge ratio between 0.25 and 8.0 (NH4^+:PO4). The condensates were allowed to cross-link for 30 min prior to performing physical measurements. The binding of each peptide to DNA was assayed by combining peptide DNA condensates (50 μl) with 950 μl of HBM containing 0.1 μM thiazole orange. The fluorescence of the intercalated dye was measured using an LS50B fluorometer (Perkin Elmer, UK) by exciting at 500 nm while monitoring emission at 530 nm with the slit width set at 15 and 20 nm, respectively. Fluorescence blanks were substracted from all values before data analysis.

[2] = Shear stress stability (salt sonication assay), Example 6; format: physicochemical; conditions: 30 sec sonication; highest tested 2.5 M
Protocol: The relative stability of peptide DNA condensates were examined using a salt sonication assay (Adami and Rice, 1999). Peptide DNA condensates (200 μl of 50 μg/ml) were formed as described above, incubated at RT for 30 min and then combined with 0-200 μl of 5 m […] and normalized to 400 μl with HBM to achieve a final sodium chloride concentration of 0, 0.2, 0.4, 0.8, 1.0, 1.5, 2.0 and 2.5 M. Each sample was sonicated for 30 sec with a 100 W Microson™ XL-2000 ultrasonic probe homogenizer (Kontes, Vineland N.J.) with a vibrational amplitude of 5 fragment uncondensed DNA. DNA condensates were digested with 30 μg to trypsin for 12 h at 37° C., electrophoresed on a 1% agarose gel electrophoresed in TEA buffer for 2 h, then visualized by ethidium bromide staining and destaining prior to photography on a transilluminator.

HepG2 cells = test: Luciferase gene expression in HepG2 cells, Example 6; format: cell-based; conditions: HepG2, absence of chloroquine
Protocol: HepG2 cells (1.5×10^5) were plated on 6×35 mm wells and grown to 50% confluencey in MEM supplemented with 10% FBS, penicillin and streptomycin (100 U/ml), sodium pyruvate (100 mM), and L-glutamine (2 mM). Transfections were performed in MEM (2 ml per 35 mm well) with 2% FBS with and without 80 μM chloroquine. Peptide DNA condensates (10 μg of DNA of 0.2 ml HBM) were added dropwise to triplicate wells. After a 5 h incubation at 37° C., the medium was replaced with MEM supplemented with 10% FBS. After 24 h, cells were washed with ice-cold phosphate buffered saline (calcium and magnesium free) and then treated with 0.5 ml of ice-cold lysis buffer (25 mM) Tris chloride pH 7.8, 1 mM EDTA, 8 mM magnesium chloride, 1% Triton X-100, 1 mM DTT) for 10 min. The cell lysates were scraped, transferred to 1.5 ml microcentrifuge tube, and centrifuged for 7 min at 13,000 g at 4° C. to pellet debris.
Lysis buffer (300 μl), sodium-ATP (4 μl of a 180 mM solution, pH 7, 4° C.) and cell lysate (100 μl, 4° C.) were combined in a test tube, briefly mixed and immediately placed in the luminometer. Luciferase relative light units (RLU) were recorded on a Lumat™ LB 9501 (Berthoid Systems, Germany) with 10 sec integration after automatic injection of 100 μl of 0.5 mM D-luciferin (prepared fresh in lysis buffer without DTT). The RLU were converted into fmol using a standard curve generated by adding a known amount of luciferase (0.01 to 100 fmols with specific activity of 2.5 nU/fmol) to 35 mm wells containing 50% confluent cells and lysis buffer. Protein concentrations were measured by Bradford assay using bovine serum albumin as a standard (Bradford, 1976). […]
LipofectAce™ (Gibco BRL, 1:2.5 w/w dimethyl dioctadecylammonium bromide and dioleoyl phosphatidylethanolamine) was used to mediate gene transaction according to the manufacturer's instructions. […] The cells were incubated for a total of 24 h, harvested and analyzed for luciferase as described above.

[3] = Shear stress stability of cross-linked DNA condensates (salt sonication), Example 5; format: physicochemical; conditions: charge ratio of 0.9
Protocol: Peptide DNA condensates (200 μl of 50 μg/ml) were formed and incubated at RT for 30 min and then combined with 0 to 200 μl of 5 M sodium chloride and normalized to 400 μl with HBM to achieve a final sodium chloride concentration of 0, 0.2, 0.4, 0.8, 1.0, 1.5, 2.0, and 2.5 M. Each sample was sonicated for 30 sec with a 100 W Microson™ XL-2000 ultrasonic probe homogenizer (Kontes, Vineland N.J.) with a vibrational amplitude of 6 to fragment uncondensed DNA (Adami et al., 1998). DNA condensates were digested with 30 μg of trypsin for 12 h at 37° C. then electrophoresed on an agarose gel and visualized by ethidium bromide staining.

[4] = QELS particle size and zeta potential of cross-linking peptide DNA condensates, Example 5; format: physicochemical; conditions: for Particle Size Mean Diameter, Oxidized, 15° / Particle Size Mean Diameter, Oxidized, 90°: HBM after 2 h incubation, 50 μg/ml DNA, 0.4 nmol peptide per μg DNA; for Particle Size Mean Diameter, Oxidized, 15°: scattering angle 15°; for Particle Size Mean Diameter, Oxidized, 90°: scattering angle 90°; for Particle Size Mean Diameter, Saline: HBM with added saline (0.15 M) after 15 min; for Particle Size Mean Diameter, Reduced: following addition of TCEP (1 mM)
Protocol: The particle size of each peptide DNA condensate was determined by quasielastic light scattering (QELS) at a scatter angle of both 15° and 90° on a Brookhaven ZetaPlus™ particle sizer. Condensates were prepared at a DNA concentration of 50 μg/ml in 400 μl HBM at a stoichiometry of 0.4 nmol of peptide per μg of DNA corresponding to a charge ratio of approximately 2:1 for each. The mean diameter and population distribution were computed from the diffusion coefficient using a unimodal cummulant analysis supplied by the manufacturer.
The particle size and zeta peptide IV DNA condensates were determined by titrating 7.5 to 37.5 nmol of peptide with 75 μg of DNA in 1.5 ml of HBM to produce 50 μg/ml DNA condensates with charge ratio of 0.5-2.5. The zeta potential was averaged from 10 determines.

For “Cys-(His-Lys)4-Cys (CHKHKHKHKC) [Peptide 15]”, the “Particle Size (nm)” value [1] was 205 ± 104 nm and the “Zeta Potential (mV)” value [1] was 23 ± 1 mV.
In the case of Cys-(Lys)2-Cys (CKKC) [Peptide 4], the “charge ratio (NH4+:PO4) needed to condense DNA (thiazole orange fluorescence minimum)” value (“charge ratio (NH4+:PO4) needed” for short) (plasmid DNA) is reported as greater than 8.
In the case of “Cys-(Lys)2-Cys-(Lys)2-Cys (CKKCKKC) [Peptide 9]”, the “Particle Size (nm)” value [1] is reported as 1668 ± 154 nm and the “sodium chloride concentration up to which DNA condensates are stable” value [2] is reported as 1.5 M.
In the case of “Cys-(Lys)3-Cys-(Lys)3-Cys (CKKKCKKKC) [Peptide 10]”, the “Particle Size (nm)” value [1] is reported as 1375 ± 324 nm, the “Zeta Potential (mV)” value [1] is reported as 34 ± 2 mV and the “sodium chloride concentration up to which DNA condensates are stable” value [2] is reported as 2.5 M.
With “Cys-(Lys)4-Cys-(Lys)4-Cys (CKKKKCKKKKC) [Peptide 11]” the “Particle Size (nm)” value [1] was 738 ± 154 nm, the “Zeta Potential (mV)” value [1] was 31 ± 3 mV and the “sodium chloride concentration up to which DNA condensates are stable” value [2] was 2.5 M.
With Cys-(Lys)6-Cys (CKKKKKKC) [Peptide 6] the “charge ratio (NH4+:PO4) needed” value (plasmid DNA) was 2, the “Particle Size (nm)” value [1] was 52 ± 4 nm and the “Zeta Potential (mV)” value [1] was 37 ± 1 mV.
With “Cys-His-(Lys)3-His-(Lys)2-His-Cys (CHKKKHKKHC) [Peptide 14]” the “higher gene expression compared to peptide 7 DNA condensates” value (HepG2 cells) was 4 fold, the “Particle Size (nm)” value [1] was 183 ± 64 nm and the “Zeta Potential (mV)” value [1] was 20 ± 2 mV.
With “Cys-His-(Lys)6-His-Cys (CHKKKKKKHC) [Peptide 13]” the “higher gene expression compared to peptide 7 DNA condensates” value (HepG2 cells) was 4 fold, the “Particle Size (nm)” value [1] was 97 ± 40 nm and the “Zeta Potential (mV)” value [1] was 31 ± 1 mV.
For “Cys-His-Lys-His-Lys-(His)2-Lys-His-Cys (CHKHKHHKHC) [Peptide 16]”, the “Particle Size (nm)” value [1] was 320 ± 169 nm and the “Zeta Potential (mV)” value [1] was 23 ± 1 mV.
For “Cys-Lys-Cys-Lys-Cys (CKCKC; printed: Cys-Lys-Cys-Lys-Cys) [Peptide 8]”, the “charge ratio (NH4+:PO4) needed” value (plasmid DNA) was 6-8.
In the case of “Cys-Trp-Lys5-Cys-Lys5-Cys-Lys5-Cys [Peptide IV]”, the “sodium chloride concentration up to which fragmentation was resisted” value [3] is reported as 2.5 M, the “Particle Size Mean Diameter, Oxidized, 15°” value [4] is reported as 57 nm and the “Particle Size Mean Diameter, Oxidized, 90°” value [4] is reported as 44 nm. The “Particle Size Mean Diameter, Saline” value [4] was 324 nm, the “particle size of electronegative DNA condensates” value ([4]; charge ratio of 0.9) was 62 nm and the “zeta potential of electronegative DNA condensates” value ([4]; charge ratio of 0.9) was −18 mV. For the same substance, the “Particle Size Mean Diameter, Reduced” value [4] was 158 nm.
For “Cys-Trp-Lys8-Cys-Lys8-Cys (CWKKKKKKKKCKKKKKKKKC) [III]”, the “Particle Size Mean Diameter, Oxidized, 15°” value [4] was 26 nm, the “Particle Size Mean Diameter, Oxidized, 90°” value [4] was 39 nm and the “Particle Size Mean Diameter, Saline” value [4] was 157 nm. The “Particle Size Mean Diameter, Reduced” value [4] was 136 nm.
